Measured values published in the supplement of paper PMC9170038.

What was measured:
[1] = test system: MS2 coat protein; assay: apparent KD of MS2 coat protein, switch OFF state (with FMN for OFF switches, without FMN for ON switches); designed switch direction (-1 OFF switch, 1 ON switch): 1; higher = weaker reporter binding; details: FMN input: 0 or 200 uM; Eterna round: R93 (includes R88 designs)
Procedure, shortened: (§1)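 Values are apparent KD, taken as the median for each design of fits to normalised binding curves from individual clusters. The designed RNA switches were transcribed on-chip from Illumina sequencing clusters and exposed to SNAP-549-labelled MS2 coat protein at twofold increasing amounts from 0.7 or 1.5 nM to 3 µM. Titration used 100 mM Tris-HCl pH 7.5, 80 mM KCl and 4 mM MgCl2, without or with constant ligand.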

[2] = test system: MS2 coat protein; assay: apparent KD of MS2 coat protein, switch ON state; designed switch direction (-1 OFF switch, 1 ON switch): 1; higher = weaker reporter binding; details: FMN input: 0 or 200 uM; Eterna round: R93 (includes R88 designs)
Procedure, shortened: as §1

Sequence: AAAUAAAUGACUAAGGAUAUAUCGAAGAAAACAUGAGGAUCACCCAUGUGAUAAUAAAAAGGGUGGUAGAAGGUAGUCAACAAAC [Mod 4 of Pariah 4 by Hyphema in Round 1]
- apparent KD of MS2 coat protein [1]: 88 nM
- apparent KD of MS2 coat protein [2]: 50.2 nM

Sequence: AAAUAACAUGAGGAUCACCCAUGUGGGCUUAAGCAAGGAUAUGGGCACUCAAAAGUAGCGCCAGAAGGUGCAGUCG [Anrabitien]
- apparent KD of MS2 coat protein [1]: 145 nM
- apparent KD of MS2 coat protein [2]: 56.1 nM

Sequence: AAAUAACAUGAGGAUCACCCAUGUUGCAACGGUACAGGAUAUGUGGGUGAAAAUAGCAUGACAGAAGGGUAGUGUA [SameState1 Malc#30]
- apparent KD of MS2 coat protein [1]: 150 nM
- apparent KD of MS2 coat protein [2]: 207 nM

Sequence: AAAUAGUGCAUUAAGGAUAUGUCGCAUGACACAUGAGGAUCACCCAUGUGGUAACACAGAGGGUGGCAGAAGGUAGUGUGCAAAC [Mod 3 of Pariah 6 (Round1) by Hyphema]
- apparent KD of MS2 coat protein [1]: 15.1 nM
- apparent KD of MS2 coat protein [2]: 108 nM

Sequence: AACAAACAUGAGGAUCACCCAUGUCAAACAAACCAAGGAUAUGGGAAGCGAGACUCGCUACCAGAAGGUGGAAAUU [Edtigebe]
- apparent KD of MS2 coat protein [1]: 176 nM
- apparent KD of MS2 coat protein [2]: 43.8 nM

Sequence: AACAAUCUAUCUGAGGAUAUCAUGAAAAAAACAUGAGGAUCACCCAUGUGCAGGAAAACUGCAUAUGAGAAGGCAGAUAGAUUGA [SS2: 1101]
- apparent KD of MS2 coat protein [1]: 913 nM
- apparent KD of MS2 coat protein [2]: 21.6 nM

Sequence: AACAAUCUAUCUGAGGAUAUCAUGUCAAAGACAUGAGGAUCACCCAUGUCUAGGAAAACUAGAUAUGAGAAGGCAGAUAGAUUGA [SS2 :P - 597]
- apparent KD of MS2 coat protein [1]: 126 nM
- apparent KD of MS2 coat protein [2]: 23.2 nM

Sequence: AACAAUCUAUCUGAGGAUAUGUGUCGAAAGACAUGAGGAUCACCCAUGUGAAAACAUGGGAAAACACAGAAGGCAGAUAGAUUGA [SS2: 1152]
- apparent KD of MS2 coat protein [1]: 33.2 nM
- apparent KD of MS2 coat protein [2]: 54.9 nM

Sequence: AACUAACAUGAGGAUCACCCAUGUUACAGCAGUUGAGGAUAUGUGGGUGAAAAUAGCAUGGCAGAAGGCGAGUGUA [SameState1 Malc#24]
- apparent KD of MS2 coat protein [1]: 127 nM
- apparent KD of MS2 coat protein [2]: 53.9 nM

Sequence: AAGAAACAUGAGGAUCACCCAUGUAAUAAUAUGGGAGGAUAUACAAGGACGUAAGUCAAGGUAGAAGGCCUAAGAA [Mat - Same State 1 - Meechl mod - D141]
- apparent KD of MS2 coat protein [1]: 137 nM
- apparent KD of MS2 coat protein [2]: 21 nM

Sequence: AAGAAACAUGAGGAUCACCCAUGUAGAAAUAUGGGAGGAUAUACAAAGACGAAAGUCAAAGUAGAAGGCCUAAGAA [Mat - Same State 1 - Meechl mod - D129]
- apparent KD of MS2 coat protein [1]: 63.2 nM
- apparent KD of MS2 coat protein [2]: 16.6 nM

Sequence: AAGAAAGUUUACGAGGAUAUGUUCCGCAGUACAUGAGGAUCACCCAUGUGAACACGAAGGGCGACGCAGAAGGCGUGAGCAAUGA [Orononed]
- apparent KD of MS2 coat protein [1]: 89.2 nM
- apparent KD of MS2 coat protein [2]: 30.9 nM

Sequence: AAUAAAAAUAGUCAGGAUAUGAGAACUAAGACAUGAGGAUCACCCAUGUAAACAGAACAAGUAAAUCAGAAGGGACAGGGUGAAA [JR_SS002_Sub201]
- apparent KD of MS2 coat protein [1]: 30.2 nM
- apparent KD of MS2 coat protein [2]: 39.3 nM

Sequence: AAUAACAAAAGAAAGGAUAUGCGCACAGGAACAUGAGGAUCACCCAUGUGGCCCGAAAGGGCAUAGCAGAAGGUUCACACGCAUA [Default title]
- apparent KD of MS2 coat protein [1]: 42 nM
- apparent KD of MS2 coat protein [2]: 32.7 nM

Sequence: AAUACACAUGAGGAUCACCCAUGUAGAAACAAGUCAGGAUAUCCGAUCCACAUGUGAUAAGGAGAAGGGACAAUAA [SS 1 Tesla 7]
- apparent KD of MS2 coat protein [1]: 163 nM
- apparent KD of MS2 coat protein [2]: 25.5 nM

Sequence: AAUACACAUGGUCAGGAUAUCGCAGCUAGGACAUGAGGAUCACCCAUGUCGUACGUAACCGUAAAUGAGAAGGGACAGGGUGACC [JR_SS002_Sub408]
- apparent KD of MS2 coat protein [1]: 54.1 nM
- apparent KD of MS2 coat protein [2]: 145 nM

Sequence: AAUAUAUUAAGCGAGGAUAUCGAGGAAAAAACAUGAGGAUCACCCAUGUGGGUAAAAAAAAAAAGUGAGAAGGUGCUUAAUAUAU [Samwise Clockwise 9 - Jieux - Same State 2]
- apparent KD of MS2 coat protein [1]: 74.7 nM
- apparent KD of MS2 coat protein [2]: 31.8 nM

Sequence: AAUAUAUUAAGUGAGGAUAUCGAGAAAAAAACAUGAGGAUCACCCAUGUGGGAAACAUGGUAGGGUGAGAAGGUACUUAAUAUAU [Samwise Clockwise 22 - Jieux - Same State 2]
- apparent KD of MS2 coat protein [1]: 399 nM
- apparent KD of MS2 coat protein [2]: 270 nM

Sequence: ACAAUACAUGAGGAUCACCCAUGUUAGCUGGGCGAAGGAUAUGUAGAUGGAUAAAAAUAUGCAGAAGGUCGAUAAC [JR_SS001_Sub209]
- apparent KD of MS2 coat protein [1]: 109 nM
- apparent KD of MS2 coat protein [2]: 68.7 nM

Sequence: ACCCGAAAGACGUAGGAUAUGUGGUCACCGACAUGAGGAUCACCCAUGUAUGCGGGAGAAUGGGUGCAGAAGGACGCUGUUCGGU [Antilera]
- apparent KD of MS2 coat protein [1]: 192 nM
- apparent KD of MS2 coat protein [2]: 21.9 nM

Sequence: AGAAAACAUGAGGAUCACCCAUGUGACAAUAUGGGAGGAUAUACGAAGACGAAAGUCGAAGUAGAAGGCCUAAAGA [Garnet 50]
- apparent KD of MS2 coat protein [1]: 66.7 nM
- apparent KD of MS2 coat protein [2]: 23.4 nM

Sequence: AGAAAACAUGAGGAUCACCCAUGUGAUAACAUGGGAGGAUAUACGAGGACGAUAGUCAAGGUAGAAGGCCUAAAGA [Garnet 71]
- apparent KD of MS2 coat protein [1]: 32.1 nM
- apparent KD of MS2 coat protein [2]: 97.3 nM

Sequence: AGAAAUAAAAAUGAGGAUAUGCAAAAGAAAACAUGAGGAUCACCCAUGUAAAAGAAAAUAAAUGGGCAGAAGGCAUGAAAUAAAGA [Helter Skelter 3]
- apparent KD of MS2 coat protein [1]: 75.1 nM
- apparent KD of MS2 coat protein [2]: 33.8 nM

Sequence: AGAAAUAAAACACAGGAUAUCCAAAAGAAAACAUGAGGAUCACCCAUGUAAAAUAAAAUAAAAUGGGAGAAGGGUGAAAAUAAGA [Mat - Same State 2 - JL mod - D5]
- apparent KD of MS2 coat protein [1]: 50.2 nM
- apparent KD of MS2 coat protein [2]: 150 nM

Sequence: AGAAAUAAAAGGCAGGAUAUCCAAAAAAAAACAUGAGGAUCACCCAUGUAAAAAAAAAAAAAAUGGGAGAAGGGCCAAAUAAAGA [Mat - Same State 2 - Eli mod - D88]
- apparent KD of MS2 coat protein [1]: 37.5 nM
- apparent KD of MS2 coat protein [2]: 16 nM

Sequence: AGAAGACAUGAGGAUCACCCAUGUGGGAAUAUGGGAGGAUAUACAAAGACGAGAGUCAGAGUAGAAGGCCUAGGAG [salish99-SS1-093]
- apparent KD of MS2 coat protein [1]: 150 nM
- apparent KD of MS2 coat protein [2]: 63.3 nM

Sequence: AGGAAACAUGAGGAUCACCCAUGUAAAAAAUAUGGAGGAUAUACUAGAAGAAACAAAAUAGUAGAAGGCCAAAAAA [75%, Ex sub1, 31]
- apparent KD of MS2 coat protein [1]: 19.4 nM
- apparent KD of MS2 coat protein [2]: 15.2 nM

Sequence: AGGAAACAUGAGGAUCACCCAUGUAAGAUAUACACAGGAUAUGCGAAAAGAAACAAAGAAGCAGAAGGGUGGAAAA [75%, Ex sub1, 11]
- apparent KD of MS2 coat protein [1]: 31.6 nM
- apparent KD of MS2 coat protein [2]: 16.5 nM

Sequence: AGGAGACAUGAGGAUCACCCAUGUGAGAAGAGGCGAGGAUAUCGAAAGAAAGAAGAGAAACGAGAAGGCGCGAGGA [salish99-SS1-019]
- apparent KD of MS2 coat protein [1]: 58.5 nM
- apparent KD of MS2 coat protein [2]: 29.8 nM

Sequence: AUAAAACAUGAGGAUCACCCAUGUAAAAAAGCAUGAGGAUAUAUAAAAAGAAAAAGAAGAAUAGAAGGCAUAGUAA [JR_SS001_Sub1222]
- apparent KD of MS2 coat protein [1]: 52.1 nM
- apparent KD of MS2 coat protein [2]: 71.4 nM

Sequence: AUAAAACAUGAGGAUCACCCAUGUAGAAAUAUGGGAGGAUAUACAAAGACGAAAGUCGAGGUAGAAGGCCUAAAAG [Mat - Same State 1 - Meechl mod - D121]
- apparent KD of MS2 coat protein [1]: 97.9 nM
- apparent KD of MS2 coat protein [2]: 21.3 nM

Sequence: AUAAAACAUGAGGAUCACCCAUGUAGAAAUAUGGGAGGAUAUACGAAGACGAAAGUCAAAGUAGAAGGCCUAAAAG [Mat - Same State 1 - Meechl mod - D115]
- apparent KD of MS2 coat protein [1]: 83.6 nM
- apparent KD of MS2 coat protein [2]: 26.5 nM

Sequence: AUAAAAUAAAAGGAGGAUAUCCUAAAUAAAACAUGAGGAUCACCCAUGUAAAAAAUAAUAAAAUGGGAGAAGGCCUAAAAUAAAU [SS2 M 25]
- apparent KD of MS2 coat protein [1]: 35 nM
- apparent KD of MS2 coat protein [2]: 16.9 nM

Sequence: AUAAAAUAAAUUGAGGAUAUCUAUAAUAAAACAUGAGGAUCACCCAUGUUUAAACAAAGAUCAUGGGAGAAGGCAGAAAAUAAAU [SS2 M 37]
- apparent KD of MS2 coat protein [1]: 20.6 nM
- apparent KD of MS2 coat protein [2]: 12.5 nM

Sequence: AUAACAACGUAUGAGGAUAUCCAUAAUAAAACAUGAGGAUCACCCAUGUGAAUAAAAUAACAAUGGGAGAAGGCAUACGUACAAU [SS 2 M 51]
- apparent KD of MS2 coat protein [1]: 16 nM
- apparent KD of MS2 coat protein [2]: 12.1 nM

Sequence: AUAAGACAUGAGGAUCACCCAUGUAUAAGAGCAUGAGGAUAUAUAAAAAGAAAAAGGAGAAUAGAAGGCAUAGUUG [JR_SS001_Sub1221]
- apparent KD of MS2 coat protein [1]: 107 nM
- apparent KD of MS2 coat protein [2]: 84.1 nM

Sequence: AUAAUAAACUGUGAGGAUAUCCAUAAUAAAACAUGAGGAUCACCCAUGUGUAGAUAAUAAUAAUGGGAGAAGGCACAUAAUAAUA [Mat - Same state - Mayanna Mod - D102]
- apparent KD of MS2 coat protein [1]: 26.2 nM
- apparent KD of MS2 coat protein [2]: 19.6 nM

Sequence: AUAUAAAUAAGGUAGGAUAUACUAAAGUAAACAUGAGGAUCACCCAUGUGAAGAAAGAAACUCAUGUAGAAGGACCAUAUAUAUA [viburnum 2]
- apparent KD of MS2 coat protein [1]: 248 nM
- apparent KD of MS2 coat protein [2]: 27.2 nM
